The term stoichiometry N denotes the number of molecules, sites or subunits per partner or assembly.

The series deals with the molecule itself. Description: SEC. Background: In gel filtration, larger molecules generally elute earlier.

B1: FasR from Mycobacterium tuberculosis, full-length (hexa-histidine-TEV-tagged construct, tag cleaved) (natural protein)
chain: MSDLAKTAQRRALRSSGSARPDEDVPAPNRRGNRLPRDERRGQLLVVASDVFVDRGYHAAGMDEIADRAGVSKPVLYQHFSSKLELYLAVLHRHVENLVSGVHQALSTTTDNRQRLHVAVQAFFDFIEHDSQGYRLIFENDFVTEPEVAAQVRVATESCIDAVFALISADSGLDPHRARMIAVGLVGMSVDCARYWLDADKPISKSDAVEGTVQFAWGGLSHVPLTRS
As for B1, the “stoichiometry N” value is 2.

B2: His-tagged FasR (FasRwt, from pET28_fasRH) (natural protein)
chain: MSDLAKTAQRRALRSSGSARPDEDVPAPNRRGNRLPRDERRGQLLVVASDVFVDRGYHAAGMDEIADRAGVSKPVLYQHFSSKLELYLAVLHRHVENLVSGVHQALSTTTDNRQRLHVAVQAFFDFIEHDSQGYRLIFENDFVTEPEVAAQVRVATESCIDAVFALISADSGLDPHRARMIAVGLVGMSVDCARYWLDADKPISKSDAVEGTVQFAWGGLSHVPLTRS
notes: not shown: His6, N-terminal, kept
On to B2, for which the “stoichiometry N” value was 2.

These data come from publication PMC7382501 (Nature Communications, 2020).
